Reference: US11834499

How the values were obtained:
CD16A [1] = target: CD16A (UniProt P08637); experiment: flow cytometry; Jurkat Lucia CD16A; only anti-his 2o AF647 652513 7,290.88
CD16A [2] = target: CD16A (UniProt P08637); experiment: flow cytometry, 2ug/reaction; Jurkat-Lucia-NFAT-CD16 cells; anti-his 2o only 18,863.83
[3] = target: human Claudin-18.2 (CLDN18.2) (human); experiment: flow cytometry; HUPT4 (CLDN18.2+); only anti-his 2o AF647 652513 12,046.33; same construct on ARK2 (CLDN18.2-) 39,787.16 (2o only 36,416.11)
[4] = target: human Claudin-18.2 (CLDN18.2) (human); experiment: flow cytometry, 2ug/reaction, trypsin to detach cells; HUPT4 cells; anti-his 2o only 12,730.43; same construct on ARK2 cells 37,777.38 (2o only 35,124.48)
CD3 on Jurkat cells = CD3 on Jurkat cells (UniProt P07766); experiment: flow cytometry, Jurkat cells, anti-His secondary; A01 Jurkat-2o alone 1,501.76
Sequence of CD3 on Jurkat cells (P07766 23-207 limits assumed): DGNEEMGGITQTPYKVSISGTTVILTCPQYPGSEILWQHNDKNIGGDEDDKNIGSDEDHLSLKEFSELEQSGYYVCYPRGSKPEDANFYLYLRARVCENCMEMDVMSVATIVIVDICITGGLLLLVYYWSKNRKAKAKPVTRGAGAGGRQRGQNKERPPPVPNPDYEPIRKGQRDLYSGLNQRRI

Sequence of CD16A (P08637 17-254 limits assumed, form in doubt): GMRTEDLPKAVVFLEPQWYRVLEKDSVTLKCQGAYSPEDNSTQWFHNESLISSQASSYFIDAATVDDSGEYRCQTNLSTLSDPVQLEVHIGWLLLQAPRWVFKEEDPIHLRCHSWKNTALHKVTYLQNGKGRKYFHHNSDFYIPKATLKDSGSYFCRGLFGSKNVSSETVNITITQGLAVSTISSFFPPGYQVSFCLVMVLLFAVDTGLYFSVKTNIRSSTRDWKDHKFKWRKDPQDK

flow cytometry signal (CD16A [1]) | flow cytometry signal (CD16A [2]) | flow cytometry signal [3] | flow cytometry signal [4] | FL4-H value printed beside the legend (CD3 on Jurkat cells) | Substance
23500 | 76500 | 8940 | 15700 |  | AFM13 (CD16A-CD30 BiTE) his tagged (bispecific antibody)
 |  |  |  | 16300 | Blincyto-His tag (bispecific antibody)
